According to patent US20170224833A1, “SELF-ASSEMBLING MOLECULES THAT ACCUMULATE IN ACIDIC TUMOR MICROENVIRONMENTS” (OHIO STATE INNOVATION FOUNDATION, priority 2014, published 2017):
Residues, ends and D or L forms follow the SMILES beside them. *: point of attachment. Palmitoyl = CCCCCCCCCCCCCCCC(=O)*

What was measured:
[1] = Circular dichroism (CD) spectroscopy of pH-triggered self-assembly transition in 150 mM NaCl, 2.2 mM CaCl2; format: physicochemical; conditions: for secondary structure by CD: irrespective of concentration and pH (pH 5-10); for CD Transition pH: random coil to β-sheet
Method: The target PA concentration (10 μM) was below the detectable limit of conventional techniques to determine the morphology such as cryoTEM and small-angle X-ray scattering. Consequently, circular dichroism (CD) spectroscopy was initially used to characterize the morphology of these PAs at various pH values. PA1 was the first molecule synthesized that underwent a self-assembly transition in the desired pH range of 6.6-7.4 at 10 μM PA concentration, in 150 mM NaCl and 2.2 mM CaCl2 (FIG. 2A) (Goldberger, J. E., et al. Angew. Chem. Int. Ed. 2011 50:6292-95). […] The transition pH from random coil to β-sheet occurred at a pH of 6.6. The transition pH was defined as the value at which the ellipticity at 205 nm rises to zero, followed by the appearance of a minimum at 218-220 nm.
Measurements were done on a Jasco-815 Circular Dichroism spectrometer using 1 cm path length quartz cuvettes. 10 μM solutions of peptide amphiphiles were prepared in 150 mM NaCl and 2.2 mM CaCl2 by dilution from a concentrated PA stock (0.5-1 mM, pH 9). Double de-ionized Milli-Q water was used for preparing all solutions. The solutions were then heated at 80° C. for 30 minutes in a water bath and gradually cooled to room temperature. An Accumet XL15 pH meter (Fisher Scientific) coupled with an Orion Ross Ultra semi-micro electrode (8103BNUWP, Thermo Scientific) was used to adjust the pH of the solution to the desired value followed by collection of the CD spectra Each trace shown was averaged over 3 accumulations and was baseline subtracted using aqueous solutions containing salts only. All spectra are cut-off below 205 nm due to absorption by NaCl and CaCl2.
Measurements were done on a Jasco-815 Circular Dichroism spectrometer using 0.5-1 cm path length quartz cuvettes. 500-10 μM of either pure PA or PA mixtures were prepared in 150 mM NaCl and 2.2 mM CaCl2 (and 1.8 mM 20 kDa PEG in select samples) by dilution from a concentrated PA stock (0.5-1 mM, pH 9). Double de-ionized Milli-Q water was used for preparing all solutions. The solutions were then heated at 80° C. for 30 minutes in a water bath and gradually cooled to room temperature. An Accumet XL15 pH meter (Fisher Scientific) coupled with an Orion Ross Ultra semi-micro electrode (8103BNUWP, Thermo Scientific) was used to adjust the pH of the solution to the desired value followed by collection of the CD spectra. Each trace shown was averaged over 3 accumulations and was baseline subtracted using aqueous solutions containing salts only. All spectra are cut-off below 200 nm due to absorption by NaCl and CaCl2. The same procedure was followed for the salt control samples with 3.0 and 4.0 mM CaCl2.
Self-assembly behavior is known to be extremely sensitive to minor changes in monomer structure and presence of impurities. […] CAC measurements via the pyrene 1:3 method (Das, D. et al. J. Colloid Interface Sci. 2008, 327:198) were used to ascertain the single molecule to spherical micelle transitions at varying pH values (FIGS. 24A-24C). CD Spectroscopy was used to determine the pH points at which different concentrations (10-500 μM) of the PA molecules transitioned from a random coil to a β-sheet secondary structure (FIGS. 25A-25C). It has been previously shown that the random coil and β-sheet structures correspond to spherical micellar/isolated molecule and nanofiber morphologies respectively (Ghosh, A. et al. J. Am. Chem. Soc. 2012, 134:3647). The CD transition point was defined to be the pH value at which the ellipticity at 200 nm rose from a negative value (random coil) to zero accompanied by the appearance of a minimum at 218-220 nm. The addition of PA66 shifted the CD transition pH to more basic values by ˜0.6 pH units. […] This ˜0.6 pH shift in CD transition pH to more basic values were also observed when 1.5% of PA67 was added to PA65. […]

[2] = Transmission electron microscopy (TEM) of self-assembled morphology; format: physicochemical; conditions: for fiber diameter: pH 8.0 (100 μM, FIG. 40); for average diameter of isolated nanofibers: 0.5 mM
Method: TEM images were obtained using solutions of either 10 μM or 0.5 mM peptide amphiphile concentration, as well as 150 mM NaCl and 2.2 mM CaCl2 in Milli-Q water. The solutions were first heated at 80° C. for 30 minutes in a water bath and then gradually cooled to room temperature. This was followed by pH adjustment using either HCl or NaOH. 5 μL of this solution was pipetted onto a Carbon Formvar grid (Electron Microscopy Sciences) and allowed to sit for 2 minutes before being wicked dry using filter paper. For the 10 μM experiments that were performed to determine the time dependence of nanofiber formation, solutions were dropcast onto the grid within three minutes of pH adjustment. The samples were then negatively stained using 1 wt % uranyl acetate and imaged under a FEI Tecnai G2 Bio TWIN TEM system, operating at 100 kV. All TEM experiments were performed in triplicate, using at least three different freshly prepared solutions and grids. […]
TEM images were obtained at various concentrations and pH values, with 150 mM NaCl and 2.2 mM CaCl2 in deionized water. Solutions were heated at 80° C. for 30 minutes and gradually cooled to room temperature. Following temperature equilibration, pH adjustment was achieved using HCl or NaOH. 5 μL of this solution was pipetted onto a Carbon Formvar grid (Electron Microscopy Sciences) and allowed to sit for 2 minutes before being wicked dry using filter paper strips. The samples were negatively stained with 1 wt % uranyl acetate and imaged under a FEI Tecnai G2 Bio TWIN TEM system operating at 100 kV.
Transmission electron microscopy was employed to confirm the self-assembled morphology at different pH values and concentrations. The sample to be tested was basified to a pH of 10, stirred at 90° C. in an oil bath for 30 minutes and cooled to room temperature. The pH was then adjusted with HCl and NaOH to set the peptide solution (in 150 mM NaCl and 2.2 mM CaCl2) to a pH of either 5 or 9. Once the desired pH was reached, 5 μL of the sample was placed and spread onto a Carbon Formvar grid (Electron Microscopy Sciences) and allowed to sit for one minute before being wicked dry with filter paper. A 1 wt % uranyl acetate solution was added and spread over the grid to negatively stain the sample, and was wicked dry immediately after application. The grid was then examined by a FEI Tecnai G2 Biotwin TEM at 100 keV. The diameters of each self-assembled morphology was determined via averaging at least 30 different objects.

[3] = 10 μM PA, 150 mM NaCl, 2.2 mM CaCl2

## Palmitoyl-AIAAEEEEK(DO3A:Gd)-NH2 (Palmitoyl-AIAAEEEEK(DO3A)-NH2; also: DO3A chelates Gd) [PA71]
[1]
  secondary structure by CD: exclusively 3-sheet formation irrespective of concentration and pH
[2]; pH 6.6, 150 μM
  nanofiber length: > 1 μm
  nanofiber width: ~11.3±1.1 nm
[2]
  fiber diameter: ~9.6±0.5 nm

## Palmitoyl-IAAAEEEEK(DO3A:Gd)-NH2 (Palmitoyl-IAAAEEEEK(DO3A)-NH2; also: DO3A chelates Gd) [PA5]
[1]; [3]
  CD Transition pH: 5.7
[1]; 20 μM PA
  nanofiber to micelle transition pH: 5.7
[1]; 0.5 mM PA
  nanofiber to micelle transition pH: 6.0
[1]; basic to acidic transition from spherical micelle to cylindrical fiber, simulated serum environment (150 mM NaC, 2.2 mM CaCl2)
  pH transition point at 10 μm PA: 5.7
[2]; 0.5 mM PA, pH 4
  nanofiber diameter: 11.9±1.6 nm
[2]; 0.5 mM PA, pH 10
  spherical micelle diameter: 10.0±1.2 nm

## palmitoyl-YYAAEEEEEK(DO3A:Gd)-NH2 (Palmitoyl-YYAAEEEEEK(DO3A)-NH2; also: DO3A chelates Gd) [PA74]
[1]; 50 μM
  pH below which nanofibers form (CD morphology transition): 5.75
[2]; FIG. 50: pH 5, PA74 500 μM, PA75 100 μM
  nanofiber diameter: 9.7+/−1.2 nm
[2]; pH 5, PA74 500 μM, PA75 100 μM
  morphology by TEM: nanofiber morphology
[2]; pH 9, PA74 500 μM, PA75 100 μM
  morphology by TEM: spherical micelle morphology

## CCCCCCCCCCCCCCCC(=O)N[C@H](C(=O)N[C@@H](C)C(=O)N[C@@H](C)C(=O)N[C@@H](C)C(=O)N[C@@H](CCC(=O)O)C(=O)N[C@@H](CCC(=O)O)C(=O)N[C@@H](CCC(=O)O)C(=O)N[C@@H](CCC(=O)O)C(N)=O)[C@@H](C)CC [PA1] (Palmitoyl-IAAAEEEE-NH2)
[1]; [3]
  pH above which CD shows superimposable random coil morphology: 6.82
  CD Transition pH: 6.6
[1]; 10 μM, 150 mM NaCl, 2.2 mM CaCl2
  time required to achieve the expected morphology after pH change: three minutes or less
[1]; 10 μM, pH switched between 7.75 and 6.1, three cycles
  transition between random coil and β-sheet structure (reversibility): rapid and reversible
[1]; basic to acidic transition from small molecule to cylindrical nanofiber, simulated serum environment
  pH transition point at 10 μm PA: 6.6
[2]; 10 μM, pH 6
  average diameter of isolated fibers: 9.1±1.5 nm
[2]; 10 μM, pH 6, grids within three minutes of pH adjustment
  average length of isolated fibers: 590±200 nm
[2]; 10 μM, pH 8
  fibers observed by TEM: no fibers were present
[2]; pH 6.0
  average diameter of isolated nanofibers: 9.4±1.1 nm
[2]; pH 10.0
  average diameter of isolated nanofibers: 9.5±1.2 nm

## Palmitoyl-AAAIEEEE-NH2 (SMILES CCCCCCCCCCCCCCCC(=O)N[C@@H](C)C(=O)N[C@@H](C)C(=O)N[C@@H](C)C(=O)N[C@H](C(=O)N[C@@H](CCC(=O)O)C(=O)N[C@@H](CCC(=O)O)C(=O)N[C@@H](CCC(=O)O)C(=O)N[C@@H](CCC(=O)O)C(N)=O)[C@@H](C)CC) [PA70]
[1]
  secondary structure by CD: β-sheet secondary structure regardless of concentration and pH
[2]
  fiber diameter: ~9.0±0.8 nm

## CCCCCCCCCCCCCCCC(=O)N[C@@H](C)C(=O)N[C@H](C(=O)N[C@@H](C)C(=O)N[C@@H](C)C(=O)N[C@@H](CCC(=O)O)C(=O)N[C@@H](CCC(=O)O)C(=O)N[C@@H](CCC(=O)O)C(=O)N[C@@H](CCC(=O)O)C(N)=O)[C@@H](C)CC [PA68] (Palmitoyl-AIAAEEEE-NH2)
[1]; 8.4 μM and above
  morphology by CD: formed nanofibers across all pH values
[2]; 100 μM, pH 5.0 and 8.3
  nanofiber diameter: 9.5±0.8 nm
